Data published in patent US20260071003A1 (UNIVERSITY OF GEORGIA RESEARCH FOUNDATION, published 2026).

Experiments:
[1] = target: T1, ApoL1 Protein, human recombinant (Sino Biological 13910-H08B) (human, UniProt O14791 28-398); assay: bridging ELISA control without bsAb (bsAb-): immobilized ApoL1, then rabbit Fc tagged BCMA, detected with anti-rabbit HRP
T1 construct: also called rApoL1; recombinant ApoL1
T1 sequence: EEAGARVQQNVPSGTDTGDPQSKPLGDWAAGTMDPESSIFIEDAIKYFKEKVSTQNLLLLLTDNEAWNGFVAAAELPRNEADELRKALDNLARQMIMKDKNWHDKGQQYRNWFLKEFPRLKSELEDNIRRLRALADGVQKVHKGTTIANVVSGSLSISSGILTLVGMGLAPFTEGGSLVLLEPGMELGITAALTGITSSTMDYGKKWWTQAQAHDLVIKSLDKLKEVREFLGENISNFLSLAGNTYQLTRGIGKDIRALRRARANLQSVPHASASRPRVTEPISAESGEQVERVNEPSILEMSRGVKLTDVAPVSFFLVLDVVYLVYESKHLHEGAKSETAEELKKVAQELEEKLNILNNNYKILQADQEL
Experimental: Enzyme-Linked Immunosorbent Assay (ELISA) plates were prepared by incubating them overnight at 4° C. with their respective immobilization buffer (bicarbonate/carbonate coating buffer 100 mM) or blocking buffer (PBS, 0.1% Tween-20, 1% BSA).
For the bridging ELISA experiments, ApoL1 (Sino Cat.13910-H08B) or BCMA (Sino Cat. 10620-H15H) were resuspended at a 1:10,000 dilution in ELISA binding buffer (1×PBST+1% BSA) and then incubated overnight at 4° C. ApoL1 was immobilized across all conditions except where BCMA was immobilized as a primary protein (ApoL1-*). Following immobilization, 100 μl of bispecific antibody (bsAb, […] in ELISA blocking buffer) was added and allowed to incubate for 1 hour at 37° C. Subsequently, each well underwent four rounds of 150 μl washes with 1×PBST. Next, 1 μg/mL rabbit Fc tagged BCMA in ELISA blocking buffer was allowed to incubate for 1 hr at 37° C. followed by four more rounds of 150 μl 1×PBST washes. A secondary binding component, anti-rabbit HRP, was added at 1:10,000 and the plate was incubated for an additional hour at 37° C. followed by another four rounds of 150 μl washes with 1×PBST. […] The reaction was halted by adding 50 μl of Stop Solution, and the absorbance was promptly measured at 450 nm on a SpectraMax iD3 plate reader ([…]).

[2] = target: T1, ApoL1 Protein, human recombinant (Sino …); assay: imaging flow cytometry: RPMI 8226 cells pre-incubated with 30 µg/mL bsAb or isotype control, then Alexa-488 labeled recombinant ApoL1
Experimental: Cells were prepared as above with the addition of 15 μg/mL unlabeled ApoL1 in the blocking buffer for overnight incubation. After blocking, cells were washed 2 times with CSB and aliquoted to 50 μl aliquots for each reaction. First, bsAb or isotype control was added at 30 μg/mL for 1.5 hours, followed by 2 washes and […] of Alexa labeled ApoL1-488. Cells were incubated for 1 hour and washed 3 times with the final wash resuspended in 50 μl of CSB.
Imaging flow cytometry acquisition was performed on an ImageStream X MK II (Luminex Corporation, Seattle, Washington) with fluidics set at low speed, sensitivity set to high, magnification set to 60×, and illumination set to: 405:120 mW, 488:200 mW, 561:200 mW, 642:150 mW, SSC:4.38 mW. All samples were acquired using the autosampler with INSPIRE software for an acquisition time of 4000 events or 8 minutes per sample, with events counting SSC channel from 5.2×10\hat{ }5 to 8.9×10\hat{ }7. Gates were set and quantified using IDEAS software version 6.2.
Next, Alexa-488 labeled recombinant ApoL1 was used to determine if cell bound bsAb can bind ApoL1. Some background binding of labeled ApoL1 to cells without bsAb, likely due to existing binding affinities for ApoL1 to cell membranes, was foreseen. […]

[3] = target: T2, BCMA on RPMI 8226 (ATCC CCL-155) multiple myeloma cells (UniProt Q02223 1-184, limits assumed); assay: imaging flow cytometry on fixed RPMI 8226 cells; Alexa-488 labeled bsAb at 3 µg/mL against Alexa-488 labeled human IgG1 isotype control
T2 construct: whole, on cells; No BCMA-negative cell control is reported; also called MM cells
T2 sequence (looked up): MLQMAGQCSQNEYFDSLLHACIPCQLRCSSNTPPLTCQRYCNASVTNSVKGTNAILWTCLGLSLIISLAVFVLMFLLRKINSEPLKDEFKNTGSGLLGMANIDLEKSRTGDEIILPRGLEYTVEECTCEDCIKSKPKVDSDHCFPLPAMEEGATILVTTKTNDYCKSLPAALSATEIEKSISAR
Experimental: Cells were cultured according to standard protocols. All cell pelleting were performed at 300× g for 5 minutes at 4 C. One to two days prior to the experiment, cells were washed and split to achieve a cell density of approximately […] in a total volume of 10-30 mL containing 10 nM LY411575 (LY). On the day of the experiment, Zombie NIR dye (BioLegend Cat. 423106) was diluted 1:100 in phosphate-buffered saline (PBS). Cells were washed and resuspended in PBS with Zombie NIR dye at a concentration of 1×10\hat{ }7 cells/mL and incubated for 10 minutes at room temperature. […]
Imaging flow cytometry acquisition was performed on an ImageStream X MK II (Luminex Corporation, Seattle, Washington) with fluidics set at low speed, sensitivity set to high, magnification set to 60×, and illumination set to: 405:120 mW, 488:200 mW, 561:200 mW, 642:150 mW, SSC:4.38 mW. […] Gates were set and quantified using IDEAS software version 6.2.
Imaging flow cytometry was used as an assay to determine if the ApoL1-BCMA-bsAb (bsAb) of Example 8 binds the two intended targets in vitro. First, the bsAb and a human IgG1 isotype control were Alexa-488 labeled and binding affinities were determined by measuring total cellular florescence after incubation. […]

[4] = target: T1, ApoL1 Protein, human recombinant (Sino …); assay: dot blot (native)
[5] = target: T3, native human Apolipoprotein L1 (ApoL1), in purified TLF / HDL float / normal human serum / endogenous in … (human, UniProt O14791 28-398); assay: Western blot of column purified TLF (2 ug), non-reducing and reducing
T3 construct: Secreted native protein carried on HDL/TLF particles; also called Native ApoL1; endogenous ApoL1
T3 sequence: T1 sequence

[6] = target: T1, ApoL1 Protein, human recombinant (Sino …); assay: Western blot of recombinant ApoL1 (SDS-PAGE, non-reducing and reducing)

B1: BCMA Protein, Human, Recombinant (ECD, rFc Tag) (Sino Biological 10620-H15H) (Fc fusion, UniProt Q02223 1-54, looked up)
chain: MLQMAGQCSQNEYFDSLLHACIPCQLRCSSNTPPLTCQRYCNASVTNSVKGTNA
notes: extracellular domain; Bought protein; also called recombinant BCMA; rabbit Fc tagged BCMA; not shown: rabbit Fc tag
[1]
  binding result: no binding (tested: 1 µg/mL rabbit Fc tagged BCMA)

B2: Clone 13.11×BCMAscFv: bsAbBCMA/ApoL1, anti-ApoL1, BCMA IgG1-scFv (Heavy Chain C-terminus) bispecific antibody (bispecific antibody)
heavy: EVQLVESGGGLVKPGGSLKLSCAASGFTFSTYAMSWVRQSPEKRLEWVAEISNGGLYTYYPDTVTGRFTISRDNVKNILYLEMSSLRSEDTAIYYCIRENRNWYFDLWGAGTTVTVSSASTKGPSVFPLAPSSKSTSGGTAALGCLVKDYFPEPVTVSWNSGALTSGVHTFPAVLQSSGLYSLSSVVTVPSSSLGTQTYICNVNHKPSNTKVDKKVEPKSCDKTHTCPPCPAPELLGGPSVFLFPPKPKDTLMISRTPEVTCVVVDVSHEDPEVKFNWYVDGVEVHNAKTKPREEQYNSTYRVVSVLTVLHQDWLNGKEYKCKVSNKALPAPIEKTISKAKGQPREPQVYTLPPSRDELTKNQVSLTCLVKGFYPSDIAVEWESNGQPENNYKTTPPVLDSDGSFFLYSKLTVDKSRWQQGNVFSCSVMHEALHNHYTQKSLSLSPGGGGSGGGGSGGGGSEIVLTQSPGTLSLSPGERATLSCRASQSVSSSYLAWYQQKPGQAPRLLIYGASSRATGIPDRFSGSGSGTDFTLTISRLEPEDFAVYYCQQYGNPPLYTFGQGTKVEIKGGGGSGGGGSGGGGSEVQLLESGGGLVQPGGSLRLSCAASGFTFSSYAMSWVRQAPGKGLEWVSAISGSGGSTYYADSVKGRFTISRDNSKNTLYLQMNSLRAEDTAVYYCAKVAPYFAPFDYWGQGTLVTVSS
light: DVLMTQTPLSLPVSLGDQASISCRSSQSIVNSNGNTYLEWYLQKPGQSPKLLIYKVSNRFSGVPDRFSGSGSGTDFTLKISRVEAEDLGVYYCFQGSHVPLTFGAGTKLEIKRTVAAPSVFIFPPSDEQLKSGTASVVCLLNNFYPREAKVQWKVDNALQSGNSQESVTEQDSKDSTYSLSSTLTLSKADYEKHKVYACEVTHQGLSSPVTKSFNRGEC
notes: It was used unlabeled, HRP-labeled or Alexa Fluor 488 labeled, depending on the assay; also called ApoL1-BCMA-bsAb; 488-bsAb
[2]
  fold increase in average cell fluorescence compared to isotype control: 2 ×
[3]
  fold increase of measured fluorescence per cell compared to isotype control: 20 ×

B3: ascites Prot-G purified anti-ApoL1 antibody, clone SFIII 13.11 (mouse IgG1) (antibody, V domains shown)
VH: EVQLVESGGGLVKPGGSLKLSCAASGFTFSTYAMSWVRQSPEKRLEWVAEISNGGLYTYYPDTVTGRFTISRDNVKNILYLEMSSLRSEDTAIYYCIRENRNWYFDLWGAGTTVTVSS
VL: DVLMTQTPLSLPVSLGDQASISCRSSQSIVNSNGNTYLEWYLQKPGQSPKLLIYKVSNRFSGVPDRFSGSGSGTDFTLKISRVEAEDLGVYYCFQGSHVPLTFGAGTKLELKR
notes: Hybridoma-derived mouse IgG1; also called ascites Pro-G purified antibody; purified antibody
[4]
  binding result: binds
[5]
  binding result: binds

B4: recombinant anti-Hpr antibody, clone SFII 134.3 (antibody, V domains shown)
VH: QIQLVQSGPELKKPGETVKISCKASGYIFTNYGMNWVRQAPGKGLKWMGWINSYTGEATYTDDLKGRFAFSLESSASTAYLQINNLKNEDTATYFCAREGYGDYGYSFDYWGQGTTLTVSS
VL: DIQMTQSPASLSASVGETVTITCRATKNIYTYLAWYQQKQGKSPQFLVYNAKTLAEGVPSRFSGSGSGTQFSLKINSLQPEDFGNYYCQHHYGTPRTFGGGTKLEIK
notes: Recombinant form of mouse anti-Hpr clone SFII 134.3; it was detected with goat anti-mouse secondary; also called recombinant antibody
[6]
  binding result: no binding (tested: 1:10,000 dilution of antibody)

B5: ascites Prot-G purified anti-Hpr antibody, clone SFII 134.3 (mouse IgG2a) (antibody, V domains shown)
VH: B4 VH
VL: DIQMTQSPASLSASVGETVTITCRATKNIYTYLAWYQQKQGKSPQFLVYNAKTLAEGVPSRFSGSGSGTQFSLKINSLQPEDFGNYYCQHHYGTPRTFGGGTKLEIKR
notes: Hybridoma-derived mouse IgG2a; also called ascites Pro-G purified antibody; purified antibody
[6]
  binding result: no binding (tested: 1:10,000 dilution of antibody)
